Target: Dyn1_(387kD) (S. cerevisiae) (UniProt P36022)
Assay: single-molecule GFP fluorescence intensity; GFP-tagged motors on surface-immobilised Cy5 MTs, with ATP or apyrase, 5 min; intensities of GFP spots compared with GST-Dyn1 331kD

Dyn1_(387kD), P36022 732-4092 showed a stoichiometry N of 2.

From publication PMC3762337
